Drawing on PMC6351632, this text covers stoichiometry N for one substance.

As a reminder, the stoichiometry N is the number of molecules, sites or subunits per partner or assembly.

In the experiment the target is Fasciola hepatica Sigma class glutathione transferase 1 (Fasciola hepatica). Description: crystal structure; FhGST-S1 with glutathione (holo/CGL and GSSG complexes), microbatch, 0.15 M KBr, 20% PEG 3350; space group P212121, two subunits forming a dimer related by a molecular dyad.

Consider “Fasciola hepatica Sigma class glutathione transferase 1 (enzyme)”, for which the stoichiometry N stood at 2.
